The values below come from US20220056141A1 (DEUTSCHES KREBSFORSCHUNGSZENTRUM STIFTUNG DES OFFENTLICHEN …, published 2022).

One may read the EC50 (read off the curve) as the concentration at which the effect is half-maximal. Read a low EC50 (read off the curve) as higher potency in that assay. For orientation: EC50 means the midpoint of the concentration-response curve. Lower therefore signals greater potency.

The target of experiment [1] is T1, CD3 on Jurkat cells (human, UniProt P07766 23-207).
T1 construct: whole, on cells; also called Jurkat (CD3+); human cluster of differentiation 3 (CD3) antigen
The experiment in a line: flow cytometry on Jurkat cells (CD3+), 30 min incubation, PE-conjugated goat anti-human Fc-gamma secondary antibody. As to the method:
(§1) In addition, antibody binding affinity was also tested using binding of the antibody to its target(s) as expressed on cells. Analyzed is the binding of CC-2 variants to Nalm16 cells expressing FLT3 (FIG. 4) or Jurkat cells expressing CD3 (FIG. 6). Variants V1 to V9 (with V6 being V6-V6) were produced after transient transfection of CHO cells using the insert sequences listed above. The antibodies were purified by protein A affinity- and size exclusion-chromatography. […] To measure antibody binding to FLT3 and CD3 NALM16 (FLT3+) and Jurkat (CD3+) cells were incubated with the respective variants for 30 min, washed, stained with a goat anti human Fcγ-specific and PE-conjugated secondary antibody (Jackson Immuno Research), washed again and analyzed by flow cytometry (FACSCalibur, BD Biosciences).
In general terms: Flow cytometry measures light scatter and fluorescence of single cells or particles in a stream.

Experiment [2] has as its target T1, CD3 on Jurkat cells. The experiment in a line: flow cytometry (value under the bar; by the legend the EC50 of the binding to Jurkat cells of FIG. 6). On the procedure: as §1

T1 sequence (P07766 23-207): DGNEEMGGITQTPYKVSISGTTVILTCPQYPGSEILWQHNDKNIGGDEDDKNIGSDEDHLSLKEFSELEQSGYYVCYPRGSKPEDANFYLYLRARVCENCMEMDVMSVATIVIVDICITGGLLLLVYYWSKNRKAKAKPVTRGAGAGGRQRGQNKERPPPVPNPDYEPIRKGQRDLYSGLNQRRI

B1: bispecific FLT3xCD3 IgGsc antibody V6-V9 (bispecific antibody)
heavy: QVQLQQPGAELVKPGASLKLSCKSSGYTFTSYWMHWVRQRPGHGLEWIGEIDPSDSYKDYNQKFKDKATLTVDRSSNTAYMHLSSLTSDDSAVYYCARAITTTPFDFWGQGTTLTVSSASTKGPSVFPLAPSSKSTSGGTAALGCLVKDYFPEPVTVSWNSGALTSGVHTFPAVLQSSGLYSLSSVVTVPSSSLGTQTYICNVNHKPSNTKVDKKVEPKSCDKTHTCPPCPAPPVAGPSVFLFPPKPKDTLMISRTPEVTCVVVGVSHEDPEVKFNWYVDGVEVHNAKTKPREEQYNSTYRVVSVLTVLHQDWLNGKEYKCKVSNKQLPSPIEKTISKAKGQPREPQVYTLPPSRDELTKNQVSLTCLVKGFYPSDIAVEWESNGQPENNYKTTPPVLDSDGSFFLYSKLTVDKSRWQQGNVFSCSVMHEALHNHYTQKSLSLSPGKSGEVQLVESGGGLVQPGGSLRLSCAASGYSFTGYTMNWVRQAPGKGLEWVALINPYKGVSTYNQKFKDRFTISVDKSKNTAYLQMNSLRAEDTAVYYCARSGYYGDSDWYFDVWGQGTLVTVSSGGGGSGGGGSGGGGSDIQMTQSPSSLSASVGDRVTITCRASQDIRNYLNWYQQKPGKAPKLLIYYTSRLESGVPSRFSGSGSGTDYTLTISSLQPEDFATYYCQQGNTLPWTFGQGTKVEIK
light: DIVLTQSPATLSVTPGDSVSLSCRASQSISNNLHWYQQKSHESPRLLIKYASQSISGIPSRFSGSGSGTDFTLSINSVETEDFGVYFCQQSNTWPYTFGGGTKLEIKRTVAAPSVFIFPPSDEQLKSGTASVVCLLNNFYPREAKVQWKVDNALQSGNSQESVTEQDSKDSTYSLSSTLTLSKADYEKHKVYACEVTHQGLSSPVTKSFNRGEC
notes: Fc-attenuated IgGsc format; also called CC-2 V9
As to B1, the “EC50 (read off the curve)” value with CD3 on Jurkat cells [1] is approximately 5 nM. The molecule further gave an EC50 with CD3 on Jurkat cells [2] of 4.1 nM.

B2: mouse FLT3 (4G8) x CD3 (humanized UCHT1) bispecific IgGsc antibody V6-V6 (bispecific antibody)
heavy: QVQLQQPGAELVKPGASLKLSCKSSGYTFTSYWMHWVRQRPGHGLEWIGEIDPSDSYKDYNQKFKDKATLTVDRSSNTAYMHLSSLTSDDSAVYYCARAITTTPFDFWGQGTTLTVSSASTKGPSVFPLAPSSKSTSGGTAALGCLVKDYFPEPVTVSWNSGALTSGVHTFPAVLQSSGLYSLSSVVTVPSSSLGTQTYICNVNHKPSNTKVDKKVEPKSCDKTHTCPPCPAPPVAGPSVFLFPPKPKDTLMISRTPEVTCVVVGVSHEDPEVKFNWYVDGVEVHNAKTKPREEQYNSTYRVVSVLTVLHQDWLNGKEYKCKVSNKQLPSPIEKTISKAKGQPREPQVYTLPPSRDELTKNQVSLTCLVKGFYPSDIAVEWESNGQPENNYKTTPPVLDSDGSFFLYSKLTVDKSRWQQGNVFSCSVMHEALHNHYTQKSLSLSPGKSGDIQMTQSPSSLSASVGDRVTITCRASQDIRNYLNWYQQKPGKAPKLLIYYTSRLESGVPSRFSGSGSGTDYTLTISSLQPEDFATYYCQQGNTLPWTFGQGTKVEIKGGGGSGGGGSGGGGSEVQLVESGGGLVQPGGSLRLSCAASGYSFTGYTMNWVRQAPGKGLEWVALINPYKGVSTYNQKFKDRFTISVDKSKNTAYLQMNSLRAEDTAVYYCARSGYYGDSDWYFDVWGQGTLVTVSS
light: DIVLTQSPATLSVTPGDSVSLSCRASQSISNNLHWYQQKSHESPRLLIKYASQSISGIPSRFSGSGSGTDFTLSINSVETEDFGVYFCQQSNTWPYTFGGGTKLEIKRTVAAPSVFIFPPSDEQLKSGTASVVCLLNNFYPREAKVQWKVDNALQSGNSQESVTEQDSKDSTYSLSSTLTLSKADYEKHKVYACEVTHQGLSSPVTKSFNRGEC
notes: also called CC-2; parental 4G8 x UCHT1
For the molecule B2, the 50% effective concentration (EC50 (read off the curve)) in the experiment with CD3 on Jurkat cells [1] was approximately 10 nM. The molecule also showed an EC50 in the experiment with CD3 on Jurkat cells [2] of 10.8 nM.
